# Laboratory results reported in patent publication US20120034160A1 (AbbVie / Abbott, published 2012).
# Positions count from the first letter of the chain named.
# B1: DVD1603 (bispecific antibody, human IgG1, kappa)
# heavy: not shown
# light: DTQVTQSPSSLSASVGDRVTITCITSTDIDVDMNWYQQKPGKPPKLLISQGNTLRPGVPSRFSSSGSGTDFTFTISSLQPEDFATYYCLQSDNLPLTFGQGTKLEIKRTVAAPSVFIFPPEIVLTQSPDFQSVTPKEKVTITCRASQDIGSELHWYQQKPDQPPKLLIKYASHSTSGVPSRFSGSGSGTDFTLTINGLEAEDAGTYYCHQTDSLPYTFGPGTKVDIKRTVAAPSVFIFPPSDEQLKSGTASVVCLLNNFYPREAKVQWKVDNALQSGNSQESVTEQDSKDSTYSLSSTLTLSKADYEKHKVYACEVTHQGLSSPVTKSFNRGEC
# B2: DVD1607 (bispecific antibody, human IgG1, kappa)
# heavy: not shown
# light: B1 light with D1E, Q3T
# B3: DVD1606 (bispecific antibody, human IgG1, kappa)
# heavy: not shown
# light: EIVLTQSPDFQSVTPKEKVTITCRASQDIGSELHWYQQKPDQPPKLLIKYASHSTSGVPSRFSGSGSGTDFTLTINGLEAEDAGTYYCHQTDSLPYTFGPGTKVDIKRTVAAPSVFIFPPDTVVTQSPAFLSVTPGEKVTITCITSTDIDVDMNWYQQKPDQPPKLLISQGNTLRPGVPSRFSSSGSGTDFTFTISSLEAEDAATYYCLQSDNLPLTFGQGTKLEIKRTVAAPSVFIFPPSDEQLKSGTASVVCLLNNFYPREAKVQWKVDNALQSGNSQESVTEQDSKDSTYSLSSTLTLSKADYEKHKVYACEVTHQGLSSPVTKSFNRGEC
# B4: DVD1604 (bispecific antibody, human IgG1, kappa)
# heavy: not shown
# light: EIVLTQSPDFQSVTPKEKVTITCRASQDIGSELHWYQQKPDQPPKLLIKYASHSTSGVPSRFSGSGSGTDFTLTINGLEAEDAGTYYCHQTDSLPYTFGPGTKVDIKRTVAAPSVFIFPPDTQVTQSPSSLSASVGDRVTITCITSTDIDVDMNWYQQKPGKPPKLLISQGNTLRPGVPSRFSSSGSGTDFTFTISSLQPEDFATYYCLQSDNLPLTFGQGTKLEIKRTVAAPSVFIFPPSDEQLKSGTASVVCLLNNFYPREAKVQWKVDNALQSGNSQESVTEQDSKDSTYSLSSTLTLSKADYEKHKVYACEVTHQGLSSPVTKSFNRGEC
# B5: DVD1608 (bispecific antibody, human IgG1, kappa)
# heavy: not shown
# light: B4 light with D121E, Q123T
# B6: DVD1605 (bispecific antibody, human IgG1, kappa)
# heavy: not shown
# light: DTVVTQSPAFLSVTPGEKVTITCITSTDIDVDMNWYQQKPDQPPKLLISQGNTLRPGVPSRFSSSGSGTDFTFTISSLEAEDAATYYCLQSDNLPLTFGQGTKLEIKRTVAAPSVFIFPPEIVLTQSPDFQSVTPKEKVTITCRASQDIGSELHWYQQKPDQPPKLLIKYASHSTSGVPSRFSGSGSGTDFTLTINGLEAEDAGTYYCHQTDSLPYTFGPGTKVDIKRTVAAPSVFIFPPSDEQLKSGTASVVCLLNNFYPREAKVQWKVDNALQSGNSQESVTEQDSKDSTYSLSSTLTLSKADYEKHKVYACEVTHQGLSSPVTKSFNRGEC
# B7: DVD1599 (bispecific antibody, human IgG1, kappa)
# heavy: not shown
# light: DIQMTQSPSSLSASVGDRVTITCRASGNIHNYLTWYQQTPGKAPKLLIYNAKTLADGVPSRFSGSGSGTDYTFTISSLQPEDIATYYCQHFWSIPYTFGQGTKLQITRTVAAPSVFIFPPEIVLTQSPDFQSVTPKEKVTITCRASQDIGSELHWYQQKPDQPPKLLIKYASHSTSGVPSRFSGSGSGTDFTLTINGLEAEDAGTYYCHQTDSLPYTFGPGTKVDIKRTVAAPSVFIFPPSDEQLKSGTASVVCLLNNFYPREAKVQWKVDNALQSGNSQESVTEQDSKDSTYSLSSTLTLSKADYEKHKVYACEVTHQGLSSPVTKSFNRGEC
# B8: DVD1601 (bispecific antibody, human IgG1, kappa)
# heavy: not shown
# light: B7 light
# B9: DVD1609 (bispecific antibody, human IgG1, kappa)
# heavy: not shown
# light: B7 light with D148N, P163S, T175I, G204A, T211S, S213T, Y216H, P220Q
# B10: DVD1611 (bispecific antibody, human IgG1, kappa)
# heavy: not shown
# light: B7 light with D148N, P163S, T175I, G204A, T211S, S213T, Y216H, P220Q
# B11: DVD1600 (bispecific antibody, human IgG1, kappa)
# heavy: not shown
# light: EIVLTQSPDFQSVTPKEKVTITCRASQDIGSELHWYQQKPDQPPKLLIKYASHSTSGVPSRFSGSGSGTDFTLTINGLEAEDAGTYYCHQTDSLPYTFGPGTKVDIKRTVAAPSVFIFPPDIQMTQSPSSLSASVGDRVTITCRASGNIHNYLTWYQQTPGKAPKLLIYNAKTLADGVPSRFSGSGSGTDYTFTISSLQPEDIATYYCQHFWSIPYTFGQGTKLQITRTVAAPSVFIFPPSDEQLKSGTASVVCLLNNFYPREAKVQWKVDNALQSGNSQESVTEQDSKDSTYSLSSTLTLSKADYEKHKVYACEVTHQGLSSPVTKSFNRGEC
# B12: DVD1612 (bispecific antibody, human IgG1, kappa)
# heavy: not shown
# light: B11 light with D28N, P43S, T55I, G84A, T91S, S93T, Y96H, P100Q
# B13: DVD1602 (bispecific antibody, human IgG1, kappa)
# heavy: not shown
# light: B11 light
# B14: DVD1610 (bispecific antibody, human IgG1, kappa)
# heavy: not shown
# light: B11 light with D28N, P43S, T55I, G84A, T91S, S93T, Y96H, P100Q
# Molecular target: Recombinant Human IL-1β (human, UniProt P01584 117-269)
# Experiment: cell-based or functional assay
Binder,N-Terminal VD IL-1β Neutralization Assay EC50,C-Terminal VD IL-1β Neutralization Assay EC50
B1,0.0803 nM,–
B2,0.455 nM,–
B3,–,1.63 nM
B4,–,2.03 nM
B5,–,4.25 nM
B6,0.242 nM,–
B7,0.0048 nM,–
B8,0.0036 nM,–
B9,0.0038 nM,–
B10,0.0041 nM,–
B11,–,0.794 nM
B12,–,0.153 nM
B13,–,0.133 nM
B14,–,1 nM

# Molecular target: T1, Recombinant Human IL-17 (human, UniProt Q16552 20-155, limits assumed)
# T1 sequence (looked up): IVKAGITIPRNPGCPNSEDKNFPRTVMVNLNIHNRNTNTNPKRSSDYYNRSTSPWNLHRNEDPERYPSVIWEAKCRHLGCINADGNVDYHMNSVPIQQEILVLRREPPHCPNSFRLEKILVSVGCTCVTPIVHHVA
# Experiment: cell-based or functional assay
Binder,C-terminal VD IL-17 Neutralization Assay EC50,N-terminal VD IL-17 Neutralization Assay EC50
B1,0.0407 nM,–
B2,0.0031 nM,–
B3,–,0.0188 nM
B4,–,0.0031 nM
B5,–,0.0082 nM
B6,0.0082 nM,–
B7,0.0504 nM,–
B8,0.0264 nM,–
B9,0.173 nM,–
B10,0.3 nM,–
B11,–,0.0055 nM
B12,–,0.0238 nM
B13,–,0.0033 nM
B14,–,0.0046 nM
